Here are results for four molecules from paper PMC3494747.

Test [1] has as its target H2-D^b class I heavy chain, endogenous on RMA-S cells (mouse (endogenous in RMA-S)). As to the kind of experiment: peptide-induced MHC class I surface stabilization assay.
Test [2] addresses DLA-88*50801 heavy chain with a FLAG epitope tag at the carboxyl terminus, on BARC3 cells (canine). As to the kind of experiment: flow cytometry on cells.
The target is the same in test [3]. As to the kind of experiment: dissociation of peptide-MHC complexes from the cell surface under brefeldin A.

H2-D^b class I heavy chain, endogenous on RMA-S cells (mouse (endogenous in RMA-S)), sequence (P01899 25-362): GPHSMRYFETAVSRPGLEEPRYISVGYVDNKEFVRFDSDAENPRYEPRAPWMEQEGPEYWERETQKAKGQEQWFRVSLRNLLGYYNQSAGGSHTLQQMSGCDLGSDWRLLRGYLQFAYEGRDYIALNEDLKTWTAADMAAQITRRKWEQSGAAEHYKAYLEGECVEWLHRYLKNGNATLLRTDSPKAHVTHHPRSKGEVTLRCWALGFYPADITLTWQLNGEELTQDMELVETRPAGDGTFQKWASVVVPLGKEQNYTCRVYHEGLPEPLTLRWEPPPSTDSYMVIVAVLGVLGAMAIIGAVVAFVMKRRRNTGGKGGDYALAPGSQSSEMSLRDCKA

In the case of “NP396 peptide (LCMV-derived immunodominant peptide)”, the MFI of anti-H2-D^b staining of peptide-loaded RMA-S cells in test [1] was determined as 217 MFI. The molecule “murine β2-microglobulin (from UniProt P01887 21-119) (natural protein)” showed an MFI of anti-murine β2M staining (K11-pulsed BARC3 cells) in test [2] of 281 MFI. In turn, RFLDKDGFIDK [K11 peptide] yielded a dissociation half-life (t1/2), first experiment in test [3] of 6 h. As for KLFSGELTK [K9 peptide], in test [3], the dissociation half-life (t1/2), first experiment came out at 1.9 h.
